# Test results from the emibetuzumab library of Makowski et al. (2022).
# B1: VH:VL chains; a variant is named by its letters at X, in order (parent)
# chain 1: QVQLVQSGAEVKKPGASVKVSCKASGYTFTDYXMHWVRQAPGQGLEWMGXVNPNXXXTTYNQKFEGRVTMTTDTSTSTAYMELRSLRSDDTAVYYCARXNXLDXWGQGTTVTVSS
# chain 2: DIQMTQSPSSLSASVGDRVTITCSVSSSVSSIYLHWYQQKPGKAPKLLIYSTSNLASGVPSRFSGSGSGTDFTLTISSLQPEDFATYYCQVYSGYPLTFGGGTKVEIK
# Variants of: B1
# Test: yeast display scFab, FACS + sequencing
# How it was run: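 The non-specific binding call was based on sorted and sequenced yeast displaying a heavy-chain CDR mutant scFab library. Labelling used anti-Myc with biotinylated ovalbumin (260 μg/mL in PBSB, 3 h, room temperature) or soluble membrane proteins (130 μg/mL, 20 min on ice), and FACS collected the top 25% and bottom 10% of binders in two replicates. Positive meant present in ≥3 of 4 pooled positive samples and in no negatives, and negative meant the converse.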
row,Variant,non-specific binding call
1,AGTRSFGY,binds
2,DGGTNAGD,no binding
3,YGTRSAAD,no binding
4,VKAGGAGS chain 1 G44D,binds
5,VKAGGDAV,no binding
6,YGAAGSAA,binds
7,VKAAGSVD,binds
8,VKAGDAAV,no binding
9,VKAGDSGA,no binding
10,YGARNAAV,binds
11,AGGGNAGD,no binding
12,DGTGGAGA,no binding
13,VKAGGDGS,no binding
14,AGGRSFVF,binds
15,YKAGDSVA,no binding
16,YGTAAFGF,binds
17,YGGGGAVA,no binding
18,VKAGDAVY,no binding
19,VGGTSSSA,no binding
20,VGGTSSSV,no binding
21,VGGTSSSS,no binding
22,FGATSVSF,binds
23,SGREGDSA,no binding
24,DGARGALF,binds
25,VGGGNAGD,no binding
26,DGTKSYGV,binds

row,Variant,non-specific binding call
1,FGEEDFSS chain 1 W105R,binds
2,YKAGGAWD,binds
3,DGAKGDGV,no binding
4,DGGKNDAV,no binding
5,VGGTGSGY,no binding
6,VGGTGSGA,no binding
7,AGGRGDVD,no binding
8,YGAKGDGV,no binding
9,DGGTNDVD,no binding
10,DGGTNDVA,no binding
11,VGGGGAAD,no binding
12,DGTGGSGA chain 1 R67H,no binding
13,YGGGGVAA,binds
14,YGETGDSV,no binding
15,DGGGNVSD,no binding
16,YKAGDAAA,binds
17,SGEEGSGA,binds
18,SGAGDYSD,binds
19,YKAEDVGD,binds
20,YGARGAAF,binds
21,YGGKNSVD,no binding
22,AGTKADVV chain 1 G108S,no binding
23,DGGGNDLV,no binding
24,VKAGASAD,binds
25,AGETGFSA,binds
26,SGEGGAGA,no binding

row,Variant,non-specific binding call
1,VKAGDSSS,no binding
2,SGRGNALD,no binding
3,DGGENAGD,no binding
4,VGGTSSLD,no binding
5,SKAENAWV,binds
6,SGKKAVWV,binds
7,VKAGDAWS,no binding
8,FGAAAVGD,binds
9,DGGGGYWF,binds
10,YKAGDDGA,no binding
11,VGTKGAGF,binds
12,SGRGNDGV,no binding
13,DGARNSGV,no binding
14,DGERTAGV,no binding
15,VGAEGVWS chain 1 G66S,binds
16,VGKGDDAA,no binding
17,SKAGGDVD,no binding
18,SGTADSSS,binds
19,YGGRAAGA,binds
20,DGGKNDGD,no binding
21,DGGKNDGS,no binding
22,DGGKNDGV,no binding
23,SKAGGSAD,binds
24,VGGTSDVV,no binding
25,VGGTSDVA,no binding
26,VGGTSDVF,no binding

row,Variant,non-specific binding call
1,DGGRAFWF,binds
2,FGKEDSVD,binds
3,SGETGDSV,no binding
4,AGRGADLS,no binding
5,VGGTSALD,no binding
6,SGRGNSVD,no binding
7,SGGGNDLA chain 1 R87K,no binding
8,DGGRGDVV,no binding
9,AKAADSSD,binds
10,SGEGGAAV,no binding
11,SGGRDSGV,binds
12,VGATSVSF,binds
13,VGGGASGV,no binding
14,YKAGGALD,binds
15,YKAGGALA,binds
16,YKAGGALY,binds
17,VGGTSDWA,no binding
18,YGGRGDWV,no binding
19,DGGKNAGV,no binding
20,DGGKNAGD,no binding
21,YKAGDSSD,no binding
22,YGAGDFGA,binds
23,VGGTSSAD,no binding
24,VGTKGDAA,no binding
25,SGEGGAVA,no binding
26,YKAGGFWF,binds

row,Variant,non-specific binding call
1,VGRGNVGV,binds
2,SKAGDAWD,binds
3,SKAGDAWY,binds
4,VGGGADVA,no binding
5,VKAGGDVY,no binding
6,YGTATFLV,binds
7,DGERDYSD,binds
8,DGGTGDVF,no binding
9,VGETSYVD,binds
10,SGTKGYWD,binds
11,FKAEAFSF,binds
12,DGGKNDVV,no binding
13,YGRGNSGD,no binding
14,FGGEGDGA,binds
15,VGGTSDGA,no binding
16,VGGTSDGV,no binding
17,VGGTSDGD,no binding
18,FGTKGAWD,binds
19,SGREGDWD,binds
20,SGRGNSGV,no binding
21,DGGEGVVY,binds
22,AGGGNDWV,no binding
23,VGGGAAGF,no binding
24,VGGGAAGV,no binding
25,DGRGDALS,no binding
26,DGGRSAVF,no binding

row,Variant,non-specific binding call
1,YGETGFWY,binds
2,SGRGNAGD,no binding
3,YGTRSYGV,binds
4,VGGGGDGS,no binding
5,SGGRTYGV,binds
6,SGRGNDAV,no binding
7,AGEGNSWA,no binding
8,VGATSFSA,binds
9,DGGADVGA,binds
10,FGRGTSGD,binds
11,FGRRGAGV,binds
12,YKAGGFGA,binds
13,SGEGNSWA,no binding
14,AGGTSYSV,no binding
15,FGRRTYGD,binds
16,YGRTSAAV,binds
17,VGGTGDVF,no binding
18,YGGTSYSV,no binding
19,VGEKGDGV,no binding
20,VGGTDFVA,no binding
21,YGATSSLA,binds
22,DGGENDVF,no binding
23,DGGENDVY,no binding
24,SGGKNSVD,no binding
25,SGGTGDVF,no binding
26,VGGGNDLA chain 1 R87K,no binding

row,Variant,non-specific binding call
1,DGGRGDGA,no binding
2,DGARNAGV,no binding
3,YGGGGDVV,no binding
4,VGGRADGF,binds
5,DGGTNSSA,no binding
6,AGGGNSGV,no binding
7,VKAASAVY,no binding
8,FGATSFSV,binds
9,YGKRDASY,binds
10,DGGTNDGA,no binding
11,DGGGNDLA chain 1 R87K,no binding
12,VGGGADGV,no binding
13,VGGGADGA,no binding
14,VGEGGDAY,no binding
15,SKAGGALD,binds
16,FGKGGFGY,binds
17,DGKEGYWA,binds
18,YGKGTSGF,no binding
19,VKAGDDVA,no binding
20,SGRGNAAD,no binding
21,YGGRADVY,no binding
22,FGAATDGV,binds
23,VGRTSFGF,binds
24,FGRGGVGD,binds
25,DGGKGAVD,binds
26,YGKGGDLA,binds

row,Variant,non-specific binding call
1,VGARNSGV,no binding
2,VGAEDDVA,no binding
3,AGKGGFAY,binds
4,DGGKNDWV,no binding
5,DGGRGDAF,no binding
6,YGETGFGS,binds
7,DGGGASSA,no binding
8,VKAGGDSD,no binding
9,VGGTSSGA,no binding
10,VGRATVGS,binds
11,SGKKSSGV,binds
12,FGRGSSWA,no binding
13,VGGRGDGS,no binding
14,DGRGNSGD,no binding
15,AGERNVAS,binds
16,AGGGNDGV,no binding
17,AGGGNDGA,no binding
18,YGGRGDAD,no binding
19,DGGTSYSV,no binding
20,YKAGDVSV,binds
21,YGGRGAVA,no binding
22,FGAKTASF,no binding
23,YGRRGFSV,binds
24,DGEGGDWD,binds
25,FKAGGAVA,binds
26,YGGGGASV,binds

row,Variant,non-specific binding call
1,AGGGNDVV,no binding
2,AGGGNDVY,no binding
3,YGGRGYAV,binds
4,DGGKNAVV,no binding
5,DGGKNAVA,no binding
6,AGGENDGD,no binding
7,DKAGGDGS,no binding
8,VGGKNSVD,no binding
9,DKAGGAGV,no binding
10,DGARNFGV,no binding
11,YKAGDAGD,no binding
12,YGGRGSWV,no binding
13,AKAGGASD,binds
14,DGGKNSVD,no binding
15,DGARNAAA,no binding
16,SGKGGSAY,binds
17,FGAKGSSS,binds
18,DGGKNDLA,no binding
19,VGTKGSSA,no binding
20,VGRGNSGD,no binding
21,SKAGGAGA,binds
22,FGGENDGD,no binding
